Laboratory results as given in patent publication US20240182575A1 (Ablynx, published 2024).
Values belong to the binder of their own block, whether it stands above or below them.

Key:
[1] = target: T1, rhPDL2-Fc (fusion protein of the extracellular part of human PD-L2 and mouse Fc gamma 1, R&D Systems Cat … (human; mouse, UniProt Q9BQ51 20-220; P01868 98-324 = IgG part, limits assumed); experiment: ELISA, coated PD-L2
T1 construct: extracellular domain;domain: Fc; bought; also called PD-L2 ectodomain
Procedure: In short, 5 μg/ml PD-L2 ectodomain (R&D Systems, Minneapolis, US, Cat #1224-PL) was immobilized on maxisorp microtiter plates (Nunc, Wiesbaden, Germany) and free binding sites were blocked using 4% Marvel in PBS. Next, 10 μl of periplasmic extract containing Nanobody of the different clones in 100 μl 2% Marvel PBST were allowed to bind to the immobilized antigen. […] Binding specificity was determined based on OD values compared to controls having received no Nanobody (low control).
After expression, the obtained Nanobodies were purified via the His-tag on Talon beads.

[2] = target: T2, rhB7-H2-Fc (fusion protein of the extracellular part of human B7-H2 (ICOSL) and mouse Fc gamma 1, R&D Systems … (human; mouse, UniProt O75144 19-256; P01868 98-324 = IgG part, limits assumed); experiment: competition ELISA, coated B7-H2; blocked ligand ICOS-biotin
T2 construct: extracellular domain;domain: Fc; bought; also called B7-H2 ectodomain

[3] = target: T2, rhB7-H2-Fc (fusion protein of the …); experiment: ELISA, coated B7-H2
Procedure: Next, 10 μl of periplasmic extract containing Nanobody of the different clones in 100 μl 2% Marvel PBST were allowed to bind to the immobilized antigen. […] Binding specificity was determined based on OD values compared to controls having received no Nanobody (low control).
After expression, the Nanobodies were purified via the His-tag on Talon beads.

[4] = target: T3, HuCD28-HuIgG1 (fusion protein of the extracellular part of human CD28 and human Fc gamma 1, R&D Systems Cat … (human, UniProt P10747 19-152; P01857 100-330 = IgG part); experiment: competition ELISA, CD28-hFc in solution; blocked ligand coated B7-1-muFc
T3 construct: extracellular domain;domain: Fc; bought; also called CD28-Ig; hCD28-Fc

[5] = target: T4, human CD28 on Jurkat cells (human, UniProt P10747 19-220); experiment: FACS competition, Jurkat cells; blocked ligand CD86-Fc
T4 construct: whole, on cells; also called native form of the CD28 antigen; cell expressed CD28
Text: (§1) The potency of cell-expressed CD28 binding Nanobodies to inhibit the interaction of CD28 with either CD80 or CD86 was also ranked using FACS based screening method. […] Dead cells were stained by including TOPRO3 vital dye in the final resuspension buffer. All samples were read on a BD FACSarray instrument. Dead cells were excluded from the analysis by gating out TOPRO3 vital dye positive scoring cells.

[6] = target: T4, human CD28 on Jurkat cells; experiment: FACS competition, Jurkat cells; blocked ligand CD80-Fc
Text: as §1

[7] = target: T4, human CD28 on Jurkat cells; experiment: FACS, Jurkat cells
Procedure: (§2) Binding of putative CD28 reactive Nanobodies clones was detected using unlabeled anti-c-myc tag mouse monoclonal antibody 9E10, followed by a phycoerythrin conjugated F(ab′)2 derived from goat-anti-mouse IgG (human and bovine crossabsorbed), and read on a BD FACSarray instrument. Dead cells were excluded from the analysis by gating out TOPRO3 vital dye positive scoring cells. Binding of the Nanobodies to cells was evaluated in BD FACSarray control software as PE channel histograms.

[8] = target: T5, HuCD86-MuIgG2a (fusion protein of the extracellular part of human CD86 and mouse Fc gamma 2a, Ancell Cat … (human; mouse, UniProt P42081 24-247; P01863 98-330 = IgG part); experiment: competition ELISA, coated CD86-Ig; blocked ligand CD28-Ig
T5 construct: extracellular domain;domain: Fc; bought; also called B7-2

[9] = target: T6, rhB7H1-Fc (fusion protein of the extracellular part of human B7-H1 (PD-L1) and mouse Fc gamma 1, R&D Systems … (human; mouse, UniProt Q9NZQ7 19-238; P01868 98-324 = IgG part, limits assumed); experiment: ELISA, coated B7-H1
T6 construct: extracellular domain;domain: Fc; bought; also called B7-H1 ectodomain

[10] = target: T6, rhB7H1-Fc (fusion protein of the …); experiment: competition ELISA, coated B7-H1; blocked ligand PD-1-biotin
Procedure: Next, 0.5 μg/ml of PD-1 was preincubated with a dilution series of purified Nanobody.

[11] = target: T7, cynomolgus monkey CTLA4 on stably transfected CHO-K1 cells (human CTLA4 cDNA with S13N, I17T and L105M) (human backbone with cynomolgus monkey …, UniProt P16410 36-223); experiment: FACS, direct binding titration on cyno CTLA4 CHO cells (head prints IC50)
T7 chain: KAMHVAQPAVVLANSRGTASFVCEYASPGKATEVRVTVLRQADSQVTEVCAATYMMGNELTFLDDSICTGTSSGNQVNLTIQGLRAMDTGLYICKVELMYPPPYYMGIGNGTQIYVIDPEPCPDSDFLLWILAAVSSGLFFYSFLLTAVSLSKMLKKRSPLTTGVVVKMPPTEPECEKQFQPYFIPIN

[12] = target: T8, HuCTLA4-HuIgG1 (fusion protein of the extracellular part of human CD152 and human Fc gamma 1, CTLA4-Ig) (human, UniProt P16410 36-161); experiment: alphascreen; competitor biotinylated HuCD80-MuIgG2a
T8 construct: extracellular domain; also called CTLA4-hFc; CTLA4-Fc; not shown: human Fc gamma 1
Text: Individual clones were scored as putative CTLA4/CD80 interaction inhibiting if the presence of the periplasmic extract decreased the fluorescent signal of the acceptor beads.

[13] = target: T8, HuCTLA4-HuIgG1 (fusion protein of the …); experiment: SPR, Biacore T100, CTLA4-Ig amine-coupled
Procedure: Affinity constants (Kd) of individual purified Nanobody clones were determined by surface plasmon resonance on a Biacore T100 instrument. […] Remaining reactive groups were inactivated using ethanolamine. […] Each sample was injected for 2 min at a flow rate of 45 μl/min to allow for binding to chip-bound antigen. Next, binding buffer without Nanobody was sent over the chip at the same flow rate to allow for dissociation of bound Nanobody. After 2 min, remaining bound analyte was removed by injecting regeneration solution (10 mM Glycine/HCl pH 1.5). Binding curves obtained at different concentrations of Nanobody were used to calculate KD values. For some clones, only a single undetermined concentrations of Nanobody was injected.

[14] = target: T9, human CTLA4 (Y201 mutated to valine) on stably transfected CHO-K1 cells (human, UniProt P16410 36-223); experiment: FACS, direct binding titration on human CTLA4 CHO cells (head prints IC50)
T9 construct: whole, on cells; the mutation of the intracellular position Y201 keeps the protein on the membrane; also called human CTLA4 overexpressing CHO cells; human CTLA4 transfectant
Procedure: as §2, with “CTLA4” for “CD28”

[15] = target: T1, rhPDL2-Fc (fusion protein of the …); experiment: competition ELISA, coated PD-L2; blocked ligand PD-1-biotin
Procedure: In short, 2 μg/ml PD-L2 ectodomain (R&D Systems, Minneapolis, US, Cat #1224-PL) was immobilized on maxisorp microtiter plates (Nunc, Wiesbaden, Germany) and free binding sites were blocked using 4% Marvel in PBS. Next, 0.5 μg/ml of PD-1 was preincubated with a dilution series of purified Nanobody.

binding result [8]: binds
B4: CD8086PMP2B4 (VHH)
VHH: EVQLVESGGGLVQAGGSLRLSCAASGSIFSIYTMGWYRQAPGEQRELVAAITSGGSTNYADSVKGRFTISRDNAKNTVYLQMNSLKPEDTAVYYCNAIAHEEGVYRWDFWGQGTQVTVSS
notes: not shown: C-terminal c-myc tag and His6 tag

EC50 (read off the curve) [9]: ~3 nM | IC50 (read off the curve) [10]: ~9 nM
B8: 104F5 (VHH)
VHH: EVQLVESGGGLVQPGGSLRLSCAASGFTLDYYAKCWFRQAPGKEREWVSCISSSDGSTYYADSVKGRFTISRDNAKNTVYLQMNSLKPEDTAVYFCAARHGGPLTVEYFFDYWGQGTQVTVSS

binding result [1]: binds
B9: 103E3 (VHH)
VHH: EVQLVESGGGLVQTGGSLRLSCAASGFTLDYYGIGWFRQAPGKEREGVSFISGSDGSTYYAESVKGRFTISRDKAKNTVYLQMNSLKPEDTAVYYCAADPWGPPSIATMTSYEYKHWGQGTQVTVSS
notes: Nanobody against PD-L2

binding result [3]: binds
B10: 95E6 (VHH)
VHH: EVQLVESGGALVQPGGSLRLSCAASGFTLGDYVIGWFRQAPGKEREWVSGISSRDDTTYYANSVKGRFTISRDNAKNTMYLQMNSLKPEDSAVYYCALRSGIAVARAPTNYDYWGQGTQVTVSS
notes: Nanobody against B7-H2 (ICOSL)

Further lines, the binder ahead of its results:

B1: 103F10 (VHH)
VHH: EVQLVESGGGLVQAGGSLRLSCAASGRTFSSGTMGWFRRAPGKEREFVASIPWSGGRTYYADSVKDRFTISRDNAQNTVFLQMNSLKPEDTAVYYCAFKERSTGWDFASWGQGIQVTVSS
notes: Nanobody against PD-L2
EC50 (read off the curve) [1]: ~20 nM

B2: 95G5 (VHH)
VHH: EVQLVESGGGLVQAGGSLRLSCASSGSTFSIDVMGWYRQAPGKVRERVAIIGTGGFPVYADSVKGRFTISRDNAKNTVYLQMNSLKPEDTAVYYCNAARLVALGSWGQGTQVTVSS
notes: as for B10
IC50 (read off the curve) [2]: ~10 nM | EC50 (read off the curve) [3]: ~100 nM

B3: 65C4 (VHH)
VHH: EVQLVESGGGLVQAGGSLRLSCKAAGRTFSSYAMGWFRQAPGKEREFVASIEWDGGGAYYEEAVKGRFTISRDNTKNTVYLQMDSLRPEDTAVYYCAASRWRTALTNYYDVADWGQGTQVTVSS
notes: Nanobody against CD28
IC50 (read off the curve) [4]: ~100 nM | IC50 (read off the curve) [5]: ~7 ng/well | IC50 (read off the curve) [6]: ~10 ng/well | EC50 (read off the curve) [7]: ~20 ng/well

B5: 65C2 (VHH)
VHH: EVQLVESGGGLVQAGGSLRLSCAASGLTFSNYVMGWFRQAPGKEREFVGTISWDGSDTYYTHSVKGRFTISRDNAKNVVNLQMNSLKPEDTAVYYCAADYRPGGLLSLGKNEYDYWGQGTQVTVSS
notes: Nanobody against CD28
IC50 (read off the curve) [4]: ~90 nM | IC50 (read off the curve) [5]: ~2 ng/well | IC50 (read off the curve) [6]: ~3 ng/well | EC50 (read off the curve) [7]: ~2 ng/well

B6: 104D2 (VHH)
VHH: EVQLVESGGGLVQPGGSLRLSCAASGFTLDYYAIGWFRQAPGKEREWASSISSSDGSTYYADSVKGRFTISRDNAKNTVFLQMNSLKPEDTAVYSCAASQAPITIATMMKPFYDYWGQGTQVTVSS
EC50 (read off the curve) [9]: 5 to 6 nM | IC50 (read off the curve) [10]: ~10 nM

B7: 4CTLAPMP2G9 (VHH)
VHH: EVQLVKSGGQLVQAGGSLRLSCAATGRTYNSYPLGWFRQAPGKEREFVAAISASGTLRAYADSVKGRFTISRDSAKNTVYLQMNNLKPEDTAVYYCARARSVGWRASHHLSDYDNWGQGTQVTVSS
notes: short label tied to the entry by the clone code only; not shown: C-terminal c-myc tag and His6 tag
IC50 [11]: 2.66 nM | IC50 [12]: 2.01 nM | Kd [13]: 1.69 nM | koff [13]: 0.00732 s⁻¹ | kon [13]: 4.35e+06 M⁻¹ s⁻¹ | IC50 [14]: 2.47 nM

B11: 103D3 (VHH)
VHH: EVQLVESGGGLVEPGGSLRLSCVASGFTFSSYDMSWVRQAPGKGLEWVSTINSGGGITYRGSVKGRFTISRDNAKNTLYLQMNSLKPEDTAVYYCENGGSSYRRGQGTQVTVSS
notes: Nanobody against PD-L2
EC50 (read off the curve) [1]: ~7 nM | IC50 (read off the curve) [15]: ~10 nM
